This note sets out measurements from publication PMC5268738, “A sequential multi-target Mps1 phosphorylation cascade promotes spindle checkpoint signaling” (eLife, 2017).

This experiment deals with scMad1^E–scMad2 complex (S. cerevisiae) (UniProt P40957). Put plainly: ITC; 20°C; 25 mM HEPES pH 7.5, 150 mM NaCl; scMad1 proteins (20 µM) in the cell; scBub1 phospho-peptides or phosphorylated scBub1_(449–530) (300 µM) injected.
Chain of scMad1^E–scMad2 complex (S. cerevisiae) (P40957 whole entry, chain 1 of 2): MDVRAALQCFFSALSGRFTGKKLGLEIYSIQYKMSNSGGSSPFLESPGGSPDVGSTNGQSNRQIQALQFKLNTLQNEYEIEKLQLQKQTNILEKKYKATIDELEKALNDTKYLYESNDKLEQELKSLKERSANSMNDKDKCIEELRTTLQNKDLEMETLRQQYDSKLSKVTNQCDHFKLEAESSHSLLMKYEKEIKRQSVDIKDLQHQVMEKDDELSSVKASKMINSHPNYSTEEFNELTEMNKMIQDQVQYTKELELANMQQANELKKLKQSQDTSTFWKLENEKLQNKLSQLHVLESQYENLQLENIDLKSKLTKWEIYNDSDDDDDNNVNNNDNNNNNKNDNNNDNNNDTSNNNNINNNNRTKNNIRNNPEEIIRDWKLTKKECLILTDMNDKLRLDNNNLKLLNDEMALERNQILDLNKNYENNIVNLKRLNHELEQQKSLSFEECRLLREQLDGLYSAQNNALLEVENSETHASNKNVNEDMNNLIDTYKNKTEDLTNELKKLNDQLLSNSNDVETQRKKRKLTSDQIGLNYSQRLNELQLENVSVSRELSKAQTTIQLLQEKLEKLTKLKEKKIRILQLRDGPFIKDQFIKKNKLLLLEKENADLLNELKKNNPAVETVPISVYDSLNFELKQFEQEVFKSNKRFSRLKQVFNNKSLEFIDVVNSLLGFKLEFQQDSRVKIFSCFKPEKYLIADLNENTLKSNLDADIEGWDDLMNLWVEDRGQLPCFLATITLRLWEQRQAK
Chain of scMad1^E–scMad2 complex (S. cerevisiae) (P40958 whole entry, chain 2 of 2, further chain): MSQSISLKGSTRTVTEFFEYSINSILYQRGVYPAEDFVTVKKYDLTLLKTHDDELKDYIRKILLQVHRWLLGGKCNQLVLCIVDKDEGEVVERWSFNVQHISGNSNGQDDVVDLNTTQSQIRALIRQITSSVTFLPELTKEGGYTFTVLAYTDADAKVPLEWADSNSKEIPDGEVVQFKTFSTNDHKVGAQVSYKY

B1: Mps1-phosphorylated scBub1_(449–530) fragment (domain or fragment)
chain: SRSPTVTAFSKDAINEVFSMFNQHYSTPGALLDGDDTTTSKFNVFENFTQEFTAKNIEDLTEVKDPKQETVSQQTTSTNETN
modifications: phosphothreonine at 453, phosphothreonine at 455, phosphoserine at 458 (mass spectrometry; co-expressed with scMps1)
Regarding B1, the Kd (in general, the equilibrium constant for the complex coming apart) was 2200 nM.
